Results: patent US20250367313A1 (MULTITUDE, published 2025)
Residue numbers refer to the chain shown, from its start.

T1: human MUC18 (human, UniProt P43121 24-646)
T1 sequence: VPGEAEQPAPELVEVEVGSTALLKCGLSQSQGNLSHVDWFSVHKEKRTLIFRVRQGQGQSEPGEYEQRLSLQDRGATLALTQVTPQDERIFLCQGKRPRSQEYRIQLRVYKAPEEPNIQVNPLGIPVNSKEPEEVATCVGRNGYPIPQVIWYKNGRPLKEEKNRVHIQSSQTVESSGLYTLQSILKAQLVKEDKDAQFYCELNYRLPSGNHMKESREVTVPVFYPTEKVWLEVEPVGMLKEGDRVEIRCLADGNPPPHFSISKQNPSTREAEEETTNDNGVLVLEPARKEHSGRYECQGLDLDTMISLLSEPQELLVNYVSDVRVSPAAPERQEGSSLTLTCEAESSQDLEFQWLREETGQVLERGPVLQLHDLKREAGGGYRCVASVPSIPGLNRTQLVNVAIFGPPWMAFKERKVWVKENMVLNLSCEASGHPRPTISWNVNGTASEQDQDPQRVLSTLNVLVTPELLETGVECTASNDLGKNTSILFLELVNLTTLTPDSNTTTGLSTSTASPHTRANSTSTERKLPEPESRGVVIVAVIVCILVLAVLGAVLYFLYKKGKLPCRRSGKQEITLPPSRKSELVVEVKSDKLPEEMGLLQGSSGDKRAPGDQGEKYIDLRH

T2: recombinant MUC18 protein (rProtein) (Homo sapiens (Human), UniProt P43121 24-559)
T2 sequence: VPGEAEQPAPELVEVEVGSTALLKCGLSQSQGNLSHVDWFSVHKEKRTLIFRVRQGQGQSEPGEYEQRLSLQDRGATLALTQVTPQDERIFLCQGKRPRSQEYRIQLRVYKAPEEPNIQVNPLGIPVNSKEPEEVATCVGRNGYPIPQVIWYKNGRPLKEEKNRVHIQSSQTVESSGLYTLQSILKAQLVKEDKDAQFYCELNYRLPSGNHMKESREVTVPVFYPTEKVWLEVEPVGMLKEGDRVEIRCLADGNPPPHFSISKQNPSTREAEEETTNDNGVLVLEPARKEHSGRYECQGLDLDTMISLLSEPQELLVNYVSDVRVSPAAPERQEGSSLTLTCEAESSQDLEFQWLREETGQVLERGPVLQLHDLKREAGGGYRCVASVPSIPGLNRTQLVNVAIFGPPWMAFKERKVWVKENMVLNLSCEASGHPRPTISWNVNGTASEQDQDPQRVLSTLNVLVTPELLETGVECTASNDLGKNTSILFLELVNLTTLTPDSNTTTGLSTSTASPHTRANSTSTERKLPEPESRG

B1: J253-vc-MMAE (antibody, V domains shown)
VH: QVQLQQSGAELVKPGASVKLSCKASGYTFTSYDINWVRQRPEQGLEWIGWIFPGDGSTDYNEKFKGKATLTTDKSSSTAYMQLSRLTSEDSAVYFCARYHFFDNWGQGTTLTVSS
VL: DIVITQDELSNPVTSGESVSISCRSSKSLLYKDGKTYLSWFLQRPGQSPQLLIYLMSTRASGVSDRFSGSGSGTDFTLEISRVKAEDVGVYYCQQLVEYPYTFGGGTKLEIK
modifications: maleimidocaproyl-Val-Cit-PAB-MMAE coupled to the antibody by a thiol-based reaction; sites and drug load not stated
B2: CL070341 (antibody, V domains shown)
VH: EVQLVESGGDLVRPGGSLKLSCAASGFTFSTYGMSWVRQSPDKRLEWVATINSRASYTYYPDSVKGRFTISRDNAKNTLYLQMSSLKSEDTGLYFCARHRRDWDSYYAMDYWGQGTSVTVSS
VL: NIMLTQSPSSLAVSTGDKVTMNCKSSQSVLYNSNQKNYLAWYQQKPGQSPTLLIYWASTSESGVPDRFTGSGSGTDFTLTISSVQAEDLAVYYCHQYLSSWTFGGGTKLEIK
notes: also called anti-MUC18 antibody CL070341
B3: CL070350 (antibody, V domains shown)
VH: AVQLVESGGDLLRPGGSLKLSCVASGFTFNNYGMSWVRQTPDKRLEWVATINRGGSYTYYTDSVKGRFTISRDNAKKTLYLQMSSLKSEDTAMYYCARHRRDWDSYYAMDYWGQGTSVTVSS
VL: B2 VL with L4M, T15A, T20A, N22S, Q27R, Q44L, T51K, S60R, L109V
notes: also called anti-MUC18 antibody CL070350
B4: J253 (antibody, V domains shown)
VH: B1 VH
VL: B1 VL
notes: also called anti-MUC18 antibody (J253)
B5: CL070336 (antibody, V domains shown)
VH: DVQLQESGPDLVKPYQSLSLTCTVTGYSITSGYSWHWIRQFPGNKLEWLGYMHYSATPNYNPSLKSRISITRDTSKNQFFLQLNSVTTEDTATYYCSRSLNWDVLDYWGQGTTLIVSS
VL: DIVLTQSPAYLPVSLGQRATISCRASKSVRTSGYNYLHWYQQKPGQPPKLLIYLASNPESGVPGRFSGSGSGTDFTLNIHPVEEEDSATYYCQHSREFPFTFGGGTQLEIK
notes: also called anti-MUC18 antibody CL070336
B6: CL070335 (antibody, V domains shown)
VH: B5 VH with Y15S, L49M, M52I, A56T, P58T, N84S, Y95F
VL: B5 VL with N35S, P58L, G64D, S87A, S95T, Q107K
notes: also called anti-MUC18 antibody CL070335
B7: CL070333 (antibody, V domains shown)
VH: QVQLQQSGPELVKPGTSVKISCKASGFTFTGYYLHWLKQRPGQGLEWIGWIYPGNVNTEFNEKFKGQATLTADKSSSTAYMQLSSLTSEDSAVYFCARSGYFASSYEFAYWGQGTLVTVSA
VL: DIQMTQSPASLSASVGETVTITCRASENIYSYLAWYQQKQGKSPQLLVYNAKTLAEGVPSRFSVSGSGTHFSLKINSLQPEDFGSYYCQHHYGTPLTFGAGTKLELK
notes: also called anti-MUC18 antibody CL070333
B8: CL070370 (antibody, V domains shown)
VH: QIQLVQSGPELKKPGETVKISCKTSGYTFTDYSMHWVKQAPRKGLKWMGWINTETGEPTYADDFKGRFAFSLETSASTAYLQINNLRNEDTATYFCVSYDYDAVSYWGQGTLVTVSA
VL: DIVMTQSHKFMSTSVGDRVNITCKASQYVGAAVAWYQQKPGQSPKLLIYWASTRHTGVPDRFTGSGSGTDFTLTINNVQSEDLADYFCQQYGNYRTFGGGTKLEIK
notes: also called anti-MUC18 antibody CL070370
B9: CL070324 (antibody, V domains shown)
VH: EVLLQQSGPELVKPGASVKIPCKASGYTFTDYNMDWVKQSHGKSLEWIGDINPNNGATLYNQNFRGKATLTVDKSSSTAYMELRSLTSEDTAVYYCTRSGYDDYYALDYWGQGTSVTVSS
VL: QTVLTQSPAIMSASLGEEITLTCSASSSVGYMHWYQQKSGTSPKLLIYSTSNLASGVPSRFSGRGSGTFYSLTISTVEAEDAADYYCHQWSNYPSTFGTGTKLELK
notes: also called anti-MUC18 antibody CL070324
B10: CL070349 (antibody, V domains shown)
VH: DVQLQESGPGLVKPSQSLSLTCSVTGYSITSGFYWNWIRQLPGNKLEWLGYINFGGTNNYNPSLKIRGSITRDTSKNQFFLKLNSVTTEDTATYYCARGGNDGGFTYWGQGTLVTVSA
VL: ENVLTQSPAIVAASLGQKVTMTCRASSSVSSTYFHWYQQKSGASPKPLLHRTSNLASGVPARFSGSGSGTSYSLTISSVEAEDDATYYCHQWSGYPYTFGGGTKLEIK
notes: also called anti-MUC18 antibody CL070349

Biological target: T1, human MUC18
Test: cell-based or functional assay

Binder	IC50 of cell viability, GAK cells [nM]	IC50 of cell viability, HMV-II cells [nM]	IC50 of cell viability, SK-MEL-2 cells [nM]
B1	0.297	0.103	0.115

Biological target: T2, recombinant MUC18 protein (rProtein)
Test: ELISA titration, antibody with varying concentrations of recombinant MUC18 protein
Method: Antibodies were incubated with varying concentrations of recombinant MUC18 protein (rProtein).

Binder	Binding affinity [nM]
B2	50
B3	0.19
B4	0.39
B5	0.39
B6	0.39
B7	12.5
B8	3.12
B9	50
B10	1.56
